Tested on: SF3B1-mutant K562 cells
Assay: Mini-screen: pooled synthetic intron mini-library in HSV-TK, GCV treatment, full-length intron sequencing from genomic DNA
Assay type: cell-based
Conditions: genotype K700E (SF3B1+/K700E) K562; GCV 100 ug/mL; day 6; vector hPGK-PuroR-P2A-HSV-TK

B1: intron_26: 150 nt MTERFD3 intron 1-derived synthetic intron, deletion 25to125; SEQ ID NO 58/66 (nucleic acid)
DNA 1: GTGAGTCGCCCCCTTCCTCTGCTCCGAGAGGGAAATGGGAATTAGGGTGGTGGCAGAGCCCAAAGAGGCCTTGTAGGCCATGGTAAGGCATTTCTATGTTTTATTTTACTTTGTCTTTATCCTAAAATGCCATTGGCAAGTTTATTGCAG
DNA 2: B1 DNA 1
- fold-change (estimated fold-change in intron abundance in gDNA): 0.282

Source: US20240018513A1, “SYNTHETIC INTRONS FOR TARGETED GENE EXPRESSION” (FRED HUTCHINSON CANCER CENTER, priority 2020, published 2024)
